Measured values reported in US20140206628A1 (University of Washington, published 2014).
Like-named read-outs stand apart in the source and are kept apart here.

B1: HB80.3_s4_E94 (designed binder)
chain: ASTRGSGRPWKFSENVAFELALYFTNKDTPDRWAKVARYVKGRTPEEVKKHYE
B2: HB80.3_s4_E82 (designed binder)
chain: MASTRGSGRPWKFSENVAFEIALSFTNKDTPDRWAKVARYVRGRTPEEVKKHYE
B3: HB36.4_s4_E11 (designed binder)
chain: MSNAMDGQQLNRLLLEWIGAWDPFGLGKDAYDVEADAVLKAVYETNSAFDLAMRIHWIYNFAFKRKIPFVHAQKLARRLLELKQAASSPLP

How the values were obtained:
[1] = target: T1, A/South Carolina/1/1918 (H1N1) hemagglutinin ectodomain, biotinylated (Influenza A virus A/South …); test: yeast surface display titration
[2] = target: T1, A/South Carolina/1/1918 (H1N1) …; test: yeast surface display titration; remark: listed apart in the source

Binder | binding result [1] | binding result [2]
B1 | binds | –
B2 | binds | –
B3 | – | binds
